B1: Cyclin-Y (Homo sapiens), Q8ND76 (parent)
chain: MGNTTSCCVSSSPKLRRNAHSRLESYRPDTDLSREDTGCNLQHISDRENIDDLNMEFNPSDHPRASTIFLSKSQTDVREKRKSLFINHHPPGQIARKYSSCSTIFLDDSTVSQPNLKYTIKCVALAIYYHIKNRDPDGRMLLDIFDENLHPLSKSEVPPDYDKHNPEQKQIYRFVRTLFSAAQLTAECAIVTLVYLERLLTYAEIDICPANWKRIVLGAILLASKVWDDQAVWNVDYCQILKDITVEDMNELERQFLELLQFNINVPSSVYAKYYFDLRSLAEANNLSFPLEPLSRERAHKLEAISRLCEDKYKDLRRSARKRSASADNLTLPRWSPAIIS

Variants of: B1
Details: with cul1_human CUL1, Q13616
Chain of cul1_human CUL1, Q13616 (Q13616 whole entry): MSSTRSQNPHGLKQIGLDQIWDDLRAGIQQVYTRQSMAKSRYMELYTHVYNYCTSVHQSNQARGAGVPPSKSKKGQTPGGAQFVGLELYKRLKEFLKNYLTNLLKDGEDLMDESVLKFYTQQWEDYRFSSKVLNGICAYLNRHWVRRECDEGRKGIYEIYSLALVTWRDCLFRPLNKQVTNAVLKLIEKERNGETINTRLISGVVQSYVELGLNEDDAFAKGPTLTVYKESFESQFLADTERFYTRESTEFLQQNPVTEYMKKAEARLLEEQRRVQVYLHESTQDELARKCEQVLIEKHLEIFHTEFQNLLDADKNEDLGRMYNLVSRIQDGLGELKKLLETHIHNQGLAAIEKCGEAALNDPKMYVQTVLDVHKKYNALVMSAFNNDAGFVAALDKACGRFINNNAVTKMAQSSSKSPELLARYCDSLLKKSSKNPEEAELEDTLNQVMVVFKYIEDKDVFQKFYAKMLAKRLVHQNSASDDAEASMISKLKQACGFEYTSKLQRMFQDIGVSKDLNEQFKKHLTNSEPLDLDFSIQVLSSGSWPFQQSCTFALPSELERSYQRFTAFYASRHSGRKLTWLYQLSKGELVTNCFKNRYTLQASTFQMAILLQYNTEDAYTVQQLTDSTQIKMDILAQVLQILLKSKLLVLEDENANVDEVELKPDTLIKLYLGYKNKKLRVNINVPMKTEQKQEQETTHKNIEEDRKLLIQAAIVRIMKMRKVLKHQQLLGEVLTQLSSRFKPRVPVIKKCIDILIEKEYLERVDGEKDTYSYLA

effect of a mutation on the interaction	Variant
decreasing interaction	MGNTTSCCVSSSPKLRRNAHSRLESYRPDTDLSREDTGCNLQHISDRENIDDLNMEFNPSDHPRASTIFLSKAQTDVREKRKSLFINHHPPGQIARKYSSCSTIFLDDSTVSQPNLKYTIKCVALAIYYHIKNRDPDGRMLLDIFDENLHPLSKSEVPPDYDKHNPEQKQIYRFVRTLFSAAQLTAECAIVTLVYLERLLTYAEIDICPANWKRIVLGAILLASKVWDDQAVWNVDYCQILKDITVEDMNELERQFLELLQFNINVPSSVYAKYYFDLRSLAEANNLSFPLEPLSRERAHKLEAISRLCEDKYKDLRRSARKRSASADNLTLPRWSPAIIS [S73A]

Variants of: B1
Details: with cul1_human CUL1, Q13616
Remark: another data set of the same source

effect of a mutation on the interaction	Variant
decreasing interaction	MGNTTSCCVSSSPKLRRNAHSRLESYRPDTDLSREDTGCNLQHISDRENIDDLNMEFNPSDHPRASTIFLAKSQTDVREKRKSLFINHHPPGQIARKYSSCSTIFLDDSTVSQPNLKYTIKCVALAIYYHIKNRDPDGRMLLDIFDENLHPLSKSEVPPDYDKHNPEQKQIYRFVRTLFSAAQLTAECAIVTLVYLERLLTYAEIDICPANWKRIVLGAILLASKVWDDQAVWNVDYCQILKDITVEDMNELERQFLELLQFNINVPSSVYAKYYFDLRSLAEANNLSFPLEPLSRERAHKLEAISRLCEDKYKDLRRSARKRSASADNLTLPRWSPAIIS [S71A]

Variants of: B1
Details: with cul1_human CUL1, Q13616
Remark: another data set of the same source

effect of a mutation on the interaction	Variant
disrupting interaction	MGNTTSCCVSSSPKLRRNAHSRLESYRPDTDLSREDTGCNLQHISDRENIDDLNMEFNPSDHPRASTIFLAKAQTDVREKRKSLFINHHPPGQIARKYSSCSTIFLDDSTVSQPNLKYTIKCVALAIYYHIKNRDPDGRMLLDIFDENLHPLSKSEVPPDYDKHNPEQKQIYRFVRTLFSAAQLTAECAIVTLVYLERLLTYAEIDICPANWKRIVLGAILLASKVWDDQAVWNVDYCQILKDITVEDMNELERQFLELLQFNINVPSSVYAKYYFDLRSLAEANNLSFPLEPLSRERAHKLEAISRLCEDKYKDLRRSARKRSASADNLTLPRWSPAIIS [S71A;S73A]
